Molecular target: Phe-Pro-Ala-pNA

Work on “Aspergillus niger tripeptidyl aminopeptidase (TPAP) (enzyme)” yielded a specific activity (release of pNA in the TPAP assay) of 27 µmol/min/mg.
